Test results: article PMC9352680, “A comprehensive thermodynamic model for RNA binding by the Saccharomyces cerevisiae Pumilio protein PUF4”

T1: PUF4 RNA-binding domain (Saccharomyces cerevisiae, UniProt P25339 537-888)
T1 sequence: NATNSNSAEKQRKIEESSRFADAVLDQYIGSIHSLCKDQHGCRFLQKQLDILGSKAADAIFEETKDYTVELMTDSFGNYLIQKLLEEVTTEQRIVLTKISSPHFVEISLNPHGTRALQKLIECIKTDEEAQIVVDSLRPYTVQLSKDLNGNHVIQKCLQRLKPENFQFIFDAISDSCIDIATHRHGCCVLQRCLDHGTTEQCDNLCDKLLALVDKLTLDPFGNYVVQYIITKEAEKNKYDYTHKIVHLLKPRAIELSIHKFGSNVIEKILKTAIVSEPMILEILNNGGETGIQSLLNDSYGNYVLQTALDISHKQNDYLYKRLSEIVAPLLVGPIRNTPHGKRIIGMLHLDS


What follows are binders tested against T1, PUF4 RNA-binding domain (assay: Mg; RNA-MaP; 20 mM Na-HEPES pH 7.4, 30 mM KOAc, 0.75 mM MgCl2, 0.1% Tween-20, 5% glycerol, 0.1 mg/mL BSA, 2 mM DTT; 25 C; 0.0125-409.6 nM protein). Details: tags: N-His6-TEV cleaved; C-SNAP kept, Cy3B-labelled; label: tethered on chip by stalled RNA polymerase.

| Binder | Kd |
| --- | --- |
| UCUCUUCUUGUAUAUAGCUCUCUU (ssRNA) [Id_ii_S1_P3E.2_K3.1_C3.2_H3.1_A3.1_F3.1_T3.2_[T9G]_[A10C]] | 4.12 nM |
| UCUCUUCCUGUAUAUAACUCUCUU (ssRNA) [Id_ii_S1_P3E.2_K3.1_C3.2_[T-1C]_H3.1_A3.1_F3.1_T3.2_[T9A]_[A10C]] | 6.69 nM |
| UCUCUUCAUGUAUAUAGUUCUCUU (ssRNA) [Id_ii_S1_P3E.2_K3.1_C3.2_[T-1A]_H3.1_A3.1_F3.1_T3.2_[T9G]_[A10T]] | 5.84 nM |
| UCUCUUCGUACAUUAUCUCUU (ssRNA) [Ib_S1_P4E.1_K4.1_C4.1_H4.1_[T1C]_A4.1_[T5C]_F4.1_T4.1] | 16.8 nM |
| UCUCUUUGCGUAUUAUCUCUU (ssRNA) [Ib_S1_P4E.1_K4.1_C4.1_H4.1_[T3C]_[A4G]_A4.1_F4.1_T4.1] | > 2300 nM |
| UCUCUUCCUGUAUAUAAGUCUCUU (ssRNA) [Id_ii_S1_P3E.2_K3.1_C3.2_[T-1C]_H3.1_A3.1_F3.1_T3.2_[T9A]_[A10G]] | 12.9 nM |
| UCUCUUCGUGUAUAUAUUUCUCUU (ssRNA) [Id_ii_S1_P3E.2_K3.1_C3.2_[T-1G]_H3.1_A3.1_F3.1_T3.2_[A10T]] | 8.56 nM |
| UCUCUUCUUGUAUAUAUCUCUCUU (ssRNA) [Id_ii_S1_P3E.2_K3.1_C3.2_H3.1_A3.1_F3.1_T3.2_[A10C]] | 6.72 nM |
| UCUCUUCGUGUAUAUAAAUCUCUU (ssRNA) [Id_ii_S1_P3E.2_K3.1_C3.2_[T-1G]_H3.1_A3.1_F3.1_T3.2_[T9A]] | 11.9 nM |
| UCUCUUGAUAUAUAUACCUCUCUU (ssRNA) [Id_ii_S1_P3E.3_K3.2_C3.2_[C-2G]_[T-1A]_H3.2_A3.1_F3.1_T3.2_[T9C]_[A10C]] | 1310 nM |
| UCUCUUGCUAUAUAUAACUCUCUU (ssRNA) [Id_ii_S1_P3E.3_K3.2_C3.2_[C-2G]_[T-1C]_H3.2_A3.1_F3.1_T3.2_[T9A]_[A10C]] | 1500 nM |
| UCUCUUGGUAUAUAUAAUUCUCUU (ssRNA) [Id_ii_S1_P3E.3_K3.2_C3.2_[C-2G]_[T-1G]_H3.2_A3.1_F3.1_T3.2_[T9A]_[A10T]] | 524 nM |
| UCUCUUGGUAUAUAUAGUUCUCUU (ssRNA) [Id_ii_S1_P3E.3_K3.2_C3.2_[C-2G]_[T-1G]_H3.2_A3.1_F3.1_T3.2_[T9G]_[A10T]] | 124 nM |
| UCUCUUCAUGUAUAUACCUCUCUU (ssRNA) [Id_ii_S1_P3E.2_K3.1_C3.2_[T-1A]_H3.1_A3.1_F3.1_T3.2_[T9C]_[A10C]] | 17.7 nM |
| UCUCUUGUUAUAUAUAUGUCUCUU (ssRNA) [Id_ii_S1_P3E.3_K3.2_C3.2_[C-2G]_H3.2_A3.1_F3.1_T3.2_[A10G]] | 46.3 nM |
| UCUCUUGUUAUAUAUACCUCUCUU (ssRNA) [Id_ii_S1_P3E.3_K3.2_C3.2_[C-2G]_H3.2_A3.1_F3.1_T3.2_[T9C]_[A10C]] | 35.9 nM |

| Binder | Kd |
| --- | --- |
| UCUCUUCUUGUAUAUACCUCUCUU (ssRNA) [Id_ii_S1_P3E.2_K3.1_C3.2_H3.1_A3.1_F3.1_T3.2_[T9C]_[A10C]] | 7.41 nM |
| UCUCUUCUUGUAUAUACUUCUCUU (ssRNA) [Id_ii_S1_P3E.2_K3.1_C3.2_H3.1_A3.1_F3.1_T3.2_[T9C]_[A10T]] | 7.04 nM |
| UCUCUUCCUGUAUAUACAUCUCUU (ssRNA) [Id_ii_S1_P3E.2_K3.1_C3.2_[T-1C]_H3.1_A3.1_F3.1_T3.2_[T9C]] | 17.7 nM |
| UCUCUUCUUGUAUAUACGUCUCUU (ssRNA) [Id_ii_S1_P3E.2_K3.1_C3.2_H3.1_A3.1_F3.1_T3.2_[T9C]_[A10G]] | 10.9 nM |
| UCUCUUCAUGUAUAUACUUCUCUU (ssRNA) [Id_ii_S1_P3E.2_K3.1_C3.2_[T-1A]_H3.1_A3.1_F3.1_T3.2_[T9C]_[A10T]] | 13.2 nM |
| UCUCUUCGUAAAUUAUCUCUU (ssRNA) [Ib_S1_P4E.1_K4.1_C4.1_H4.1_[T1C]_A4.1_[T5A]_F4.1_T4.1] | 139 nM |
| UCUCUUCUUGUAUAUAAUUCUCUU (ssRNA) [Id_ii_S1_P3E.2_K3.1_C3.2_H3.1_A3.1_F3.1_T3.2_[T9A]_[A10T]] | 8.3 nM |
| UCUCUUAGUACAUUAUCUCUU (ssRNA) [Ib_S1_P4E.1_K4.1_C4.1_H4.1_[T1A]_A4.1_[T5C]_F4.1_T4.1] | 39.1 nM |
| UCUCUUCUUGUAUAUAUAUCUCUU (ssRNA) [Id_ii_S1_P3E.2_K3.1_C3.2_H3.1_A3.1_F3.1_T3.2] | 3.83 nM |
| UCUCUUCCUGUAUAUAAUUCUCUU (ssRNA) [Id_ii_S1_P3E.2_K3.1_C3.2_[T-1C]_H3.1_A3.1_F3.1_T3.2_[T9A]_[A10T]] | 5.34 nM |
| UCUCUUUAUCUAUUAUCUCUU (ssRNA) [Ib_S1_P4E.1_K4.1_C4.1_H4.1_[G2A]_[A4C]_A4.1_F4.1_T4.1] | > 2300 nM |
| UCUCUUGGUAUAUAUAACUCUCUU (ssRNA) [Id_ii_S1_P3E.3_K3.2_C3.2_[C-2G]_[T-1G]_H3.2_A3.1_F3.1_T3.2_[T9A]_[A10C]] | 782 nM |
| UCUCUUCAUGUAUAUAAGUCUCUU (ssRNA) [Id_ii_S1_P3E.2_K3.1_C3.2_[T-1A]_H3.1_A3.1_F3.1_T3.2_[T9A]_[A10G]] | 6.69 nM |
| UCUCUUCCUGUAUAUAGUUCUCUU (ssRNA) [Id_ii_S1_P3E.2_K3.1_C3.2_[T-1C]_H3.1_A3.1_F3.1_T3.2_[T9G]_[A10T]] | 4.07 nM |
| UCUCUUCUUGUAUAUAACUCUCUU (ssRNA) [Id_ii_S1_P3E.2_K3.1_C3.2_H3.1_A3.1_F3.1_T3.2_[T9A]_[A10C]] | 8.53 nM |
